These results are taken from patent US20200216494A1 (ROYAL MELBOURNE INSTITUTE OF TECHNOLOGY, published 2020).

The target of this experiment is T1, NOX2 (catalytic subunit of NOX2 NADPH oxidase) (mouse, UniProt Q61093 2-570).
T1 construct: whole, on cells; Endogenous protein in mouse alveolar macrophages, BMDMs and RAW264.7 cells; also called gp91phox; CYBB
T1 sequence (looked up): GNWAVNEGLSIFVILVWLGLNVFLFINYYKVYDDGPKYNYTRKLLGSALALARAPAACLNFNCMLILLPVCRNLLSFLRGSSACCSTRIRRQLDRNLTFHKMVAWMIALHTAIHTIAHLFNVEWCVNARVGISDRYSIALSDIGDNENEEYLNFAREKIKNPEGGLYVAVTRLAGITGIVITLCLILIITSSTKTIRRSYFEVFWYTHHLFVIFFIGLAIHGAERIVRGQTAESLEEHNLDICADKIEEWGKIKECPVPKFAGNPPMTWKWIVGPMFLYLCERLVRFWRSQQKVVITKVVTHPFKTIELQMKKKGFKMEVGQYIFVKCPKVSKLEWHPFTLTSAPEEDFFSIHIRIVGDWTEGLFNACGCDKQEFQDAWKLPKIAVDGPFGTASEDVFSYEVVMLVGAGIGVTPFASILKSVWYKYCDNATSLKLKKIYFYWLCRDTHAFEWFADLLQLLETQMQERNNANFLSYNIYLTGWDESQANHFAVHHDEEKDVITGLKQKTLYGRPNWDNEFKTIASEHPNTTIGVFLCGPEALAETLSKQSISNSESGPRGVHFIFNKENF
Kind of experiment: confocal immunofluorescence of NOX2 and p47phox association (NOX2 oxidase assembly) in HKx31-infected mouse macrophages.

B1: p47phox regulatory subunit of NOX2 oxidase (other, mouse, UniProt Q09014 1-390, looked up)
chain: MGDTFIRHIALLGFEKRFIPSQHYVYMFLVKWQDLSEKVVYRKFTEIYEFHKMLKEMFPIEAGEIHTENRVIPHLPAPRWFDGQRAAESRQGTLTEYFNGLMGLPVKISRCPHLLDFFKVRPDDLKLPTDSQAKKPETYLVPKDGKNNVADITGPIILQTYRAIADYEKSSGTEMTVATGDVVDVVEKSESGWWFCQMKTKRGWVPASYLEPLDSPDEAEDPDPNYAGEPYVTIKAYAAVEEDEMSLSEGEAIEVIHKLLDGWWVVRKGDITGYFPSMYLQKAGEEITQAQRQIRGRGAPPRRSTIRNAQSIHQRSRKRLSQDTYRRNSVRFLQQRRRPGRPGPLSTDGTKDNPSTPRVKPQPAVPPRPSSDLILHRCTESTKRKLTSAV
notes: whole, on cells; Cytosolic subunit, endogenous in the cells
On to B1, for which the binding result is listed as “binds”.
